Measured values published in paper PMC7229842, “Molecular basis of the multifaceted functions of human leucyl-tRNA synthetase in protein synthesis and beyond” (Nucleic Acids Research, 2020).

T1: MRS-AIMP3 complex (human cytosolic methionyl-tRNA synthetase co-expressed with AIMP3) (human, UniProt P56192 1-900; O43324 1-174)
T1 construct: human cytosolic methionyl-tRNA synthetase (MRS), gene cloned from the cDNA of HEK293 cells; Only MRS carries the Flag tag; It is the bait of the anti-Flag pull-down of the assembled MSC; source: co-expressed from a modified pETDuet-1, purified (Ni-NTA, gel filtration); not shown: Flag, C-terminal, kept
T1 sequence (looked up) 1: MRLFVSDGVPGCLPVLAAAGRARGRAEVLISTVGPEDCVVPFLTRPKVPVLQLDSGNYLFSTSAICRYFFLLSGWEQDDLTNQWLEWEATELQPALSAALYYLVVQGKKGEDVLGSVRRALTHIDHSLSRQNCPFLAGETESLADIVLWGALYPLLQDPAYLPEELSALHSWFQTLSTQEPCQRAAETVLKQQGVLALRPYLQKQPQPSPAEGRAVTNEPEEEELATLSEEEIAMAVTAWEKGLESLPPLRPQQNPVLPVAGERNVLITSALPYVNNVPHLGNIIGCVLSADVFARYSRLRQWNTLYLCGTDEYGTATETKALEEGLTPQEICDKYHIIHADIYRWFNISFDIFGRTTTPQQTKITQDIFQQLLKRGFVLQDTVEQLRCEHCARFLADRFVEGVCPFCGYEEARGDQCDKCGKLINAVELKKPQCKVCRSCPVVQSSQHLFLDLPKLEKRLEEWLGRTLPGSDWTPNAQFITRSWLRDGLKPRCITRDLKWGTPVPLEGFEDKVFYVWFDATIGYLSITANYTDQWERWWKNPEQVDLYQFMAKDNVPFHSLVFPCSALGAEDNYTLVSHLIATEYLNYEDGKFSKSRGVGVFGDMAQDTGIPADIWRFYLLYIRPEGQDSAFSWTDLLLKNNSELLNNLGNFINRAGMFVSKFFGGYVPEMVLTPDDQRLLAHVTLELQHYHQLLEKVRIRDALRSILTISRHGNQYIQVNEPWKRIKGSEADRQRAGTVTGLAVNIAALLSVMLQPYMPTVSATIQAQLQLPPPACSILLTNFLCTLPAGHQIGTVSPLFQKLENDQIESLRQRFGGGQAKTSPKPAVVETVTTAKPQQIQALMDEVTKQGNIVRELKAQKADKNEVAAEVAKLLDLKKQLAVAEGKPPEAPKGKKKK
T1 sequence (looked up) 2: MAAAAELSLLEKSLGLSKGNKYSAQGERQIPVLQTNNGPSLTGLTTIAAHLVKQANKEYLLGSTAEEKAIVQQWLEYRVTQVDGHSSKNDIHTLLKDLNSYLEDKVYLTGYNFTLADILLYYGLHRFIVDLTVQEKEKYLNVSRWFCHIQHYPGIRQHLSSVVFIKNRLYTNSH

T2: Human cytosolic isoleucyl-tRNA synthetase (human, UniProt P41252 1-1262)
T2 construct: human cytosolic isoleucyl-tRNA synthetase (IRS), gene cloned from the cDNA of HEK293 cells; also called IRS; source: recombinant from a modified pET28b, purified (Ni-NTA, gel filtration)
T2 sequence (looked up): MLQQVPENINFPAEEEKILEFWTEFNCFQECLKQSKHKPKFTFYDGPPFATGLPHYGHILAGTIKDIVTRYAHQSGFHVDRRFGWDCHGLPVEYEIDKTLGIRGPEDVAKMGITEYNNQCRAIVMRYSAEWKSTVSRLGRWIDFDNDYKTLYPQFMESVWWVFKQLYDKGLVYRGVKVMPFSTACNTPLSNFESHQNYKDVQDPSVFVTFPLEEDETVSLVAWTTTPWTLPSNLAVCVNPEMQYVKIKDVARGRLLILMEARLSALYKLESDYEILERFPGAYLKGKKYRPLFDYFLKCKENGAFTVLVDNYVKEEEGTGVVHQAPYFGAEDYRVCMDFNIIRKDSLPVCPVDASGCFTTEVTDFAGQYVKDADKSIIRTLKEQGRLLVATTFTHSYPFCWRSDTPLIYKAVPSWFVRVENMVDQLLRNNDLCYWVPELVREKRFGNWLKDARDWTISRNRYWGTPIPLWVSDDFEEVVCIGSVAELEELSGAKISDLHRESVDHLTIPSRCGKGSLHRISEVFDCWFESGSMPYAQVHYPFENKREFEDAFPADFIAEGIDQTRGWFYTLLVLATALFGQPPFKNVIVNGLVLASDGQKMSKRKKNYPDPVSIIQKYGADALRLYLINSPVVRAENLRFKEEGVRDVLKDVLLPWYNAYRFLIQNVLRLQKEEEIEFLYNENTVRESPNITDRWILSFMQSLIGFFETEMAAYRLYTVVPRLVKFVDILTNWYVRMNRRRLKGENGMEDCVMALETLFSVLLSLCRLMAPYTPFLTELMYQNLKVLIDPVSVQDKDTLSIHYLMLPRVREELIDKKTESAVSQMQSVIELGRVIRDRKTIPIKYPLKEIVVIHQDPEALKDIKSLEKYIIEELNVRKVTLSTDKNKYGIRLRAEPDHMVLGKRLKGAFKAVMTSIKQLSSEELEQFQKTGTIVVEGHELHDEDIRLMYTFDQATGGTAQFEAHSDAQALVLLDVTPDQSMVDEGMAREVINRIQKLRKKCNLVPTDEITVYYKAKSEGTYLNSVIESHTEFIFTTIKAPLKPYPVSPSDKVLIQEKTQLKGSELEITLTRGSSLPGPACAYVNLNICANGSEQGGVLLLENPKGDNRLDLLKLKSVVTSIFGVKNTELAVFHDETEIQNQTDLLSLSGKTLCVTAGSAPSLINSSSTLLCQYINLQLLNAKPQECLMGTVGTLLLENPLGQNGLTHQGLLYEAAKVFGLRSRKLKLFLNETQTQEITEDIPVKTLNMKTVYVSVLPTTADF


Columns and labels:
[1] = target: T1, MRS-AIMP3 complex (human cytosolic …); test: pull-down; in vitro assembly of the MSC as in a2 but lacking IRS; anti-Flag beads on MRS-Flag; settings: both partners purified
[2] = target: T2, Human cytosolic isoleucyl-tRNA …; test: SEC; purified hcLRS (or hcLRS_d106) incubated with each partner separately for 4 h, then run on gel filtration; protein incubated with buffer as control; settings: both partners purified

Row | Binder | binding result [1] | binding result [2]
1 | Human cytosolic arginyl-tRNA synthetase (enzyme, UniProt P54136 1-660, looked up, human cytosolic RRS, gene cloned from the cDNA of HEK293 cells; also called RRS; source: recombinant from a modified pET28b, purified (Ni-NTA, gel filtration)) MDVLVSECSARLLQQEEEIKSLTAEIDRLKNCGCLGASPNLEQLQEENLKLKYRLNILRKSLQAERNKPTKNMINIISRLQEVFGHAIKAAYPDLENPPLLVTPSQQAKFGDYQCNSAMGISQMLKTKEQKVNPREIAENITKHLPDNECIEKVEIAGPGFINVHLRKDFVSEQLTSLLVNGVQLPALGENKKVIVDFSSPNIAKEMHVGHLRSTIIGESISRLFEFAGYDVLRLNHVGDWGTQFGMLIAHLQDKFPDYLTVSPPIGDLQVFYKESKKRFDTEEEFKKRAYQCVVLLQGKNPDITKAWKLICDVSRQELNKIYDALDVSLIERGESFYQDRMNDIVKEFEDRGFVQVDDGRKIVFVPGCSIPLTIVKSDGGYTYDTSDLAAIKQRLFEEKADMIIYVVDNGQSVHFQTIFAAAQMIGWYDPKVTRVFHAGFGVVLGEDKKKFKTRSGETVRLMDLLGEGLKRSMDKLKEKERDKVLTAEELNAAQTSVAYGCIKYADLSHNRLNDYIFSFDKMLDDRGNTAAYLLYAFTRIRSIARLANIDEEMLQKAARETKILLDHEKEWKLGRCILRFPEILQKILDDLFLHTLCDYIYELATAFTEFYDSCYCVEKDRQTGKILKVNMWRMLLCEAVAAVMAKGFDILGIKPVQRM | binds | –
2 | Human cytosolic glutaminyl-tRNA synthetase (enzyme, UniProt P47897 1-775, looked up, human cytosolic QRS, gene cloned from the cDNA of HEK293 cells; also called QRS; source: recombinant from a modified pET28b, purified (Ni-NTA, gel filtration)) MAALDSLSLFTSLGLSEQKARETLKNSALSAQLREAATQAQQTLGSTIDKATGILLYGLASRLRDTRRLSFLVSYIASKKIHTEPQLSAALEYVRSHPLDPIDTVDFERECGVGVIVTPEQIEEAVEAAINRHRPQLLVERYHFNMGLLMGEARAVLKWADGKMIKNEVDMQVLHLLGPKLEADLEKKFKVAKARLEETDRRTAKDVVENGETADQTLSLMEQLRGEALKFHKPGENYKTPGYVVTPHTMNLLKQHLEITGGQVRTRFPPEPNGILHIGHAKAINFNFGYAKANNGICFLRFDDTNPEKEEAKFFTAICDMVAWLGYTPYKVTYASDYFDQLYAWAVELIRRGLAYVCHQRGEELKGHNTLPSPWRDRPMEESLLLFEAMRKGKFSEGEATLRMKLVMEDGKMDPVAYRVKYTPHHRTGDKWCIYPTYDYTHCLCDSIEHITHSLCTKEFQARRSSYFWLCNALDVYCPVQWEYGRLNLHYAVVSKRKILQLVATGAVRDWDDPRLFTLTALRRRGFPPEAINNFCARVGVTVAQTTMEPHLLEACVRDVLNDTAPRAMAVLESLRVIITNFPAAKSLDIQVPNFPADETKGFHQVPFAPIVFIERTDFKEEPEPGFKRLAWGQPVGLRHTGYVIELQHVVKGPSGCVESLEVTCRRADAGEKPKAFIHWVSQPLMCEVRLYERLFQHKNPEDPTEVPGGFLSDLNLASLHVVDAALVDCSVALAKPFDKFQFERLGYFSVDPDSHQGKLVFNRTVTLKEDPGKV | binds | –
3 | Human cytosolic aspartyl-tRNA synthetase (enzyme, UniProt P14868 1-501, looked up, human cytosolic DRS, gene cloned from the cDNA of HEK293 cells; also called DRS; source: recombinant from a modified pET28b, purified (Ni-NTA, gel filtration)) MPSASASRKSQEKPREIMDAAEDYAKERYGISSMIQSQEKPDRVLVRVRDLTIQKADEVVWVRARVHTSRAKGKQCFLVLRQQQFNVQALVAVGDHASKQMVKFAANINKESIVDVEGVVRKVNQKIGSCTQQDVELHVQKIYVISLAEPRLPLQLDDAVRPEAEGEEEGRATVNQDTRLDNRVIDLRTSTSQAVFRLQSGICHLFRETLINKGFVEIQTPKIISAASEGGANVFTVSYFKNNAYLAQSPQLYKQMCICADFEKVFSIGPVFRAEDSNTHRHLTEFVGLDIEMAFNYHYHEVMEEIADTMVQIFKGLQERFQTEIQTVNKQFPCEPFKFLEPTLRLEYCEALAMLREAGVEMGDEDDLSTPNEKLLGHLVKEKYDTDFYILDKYPLAVRPFYTMPDPRNPKQSNSYDMFMRGEEILSGAQRIHDPQLLTERALHHGIDLEKIKAYIDSFRFGAPPHAGGGIGLERVTMLFLGLHNVRQTSMFPRDPKRLTP | binds | –
4 | AaRS-interacting multi-functional protein 1 (natural protein, human, UniProt Q12904 1-312, looked up, human AIMP1, gene cloned from the cDNA of HEK293 cells; also called AIMP1; source: recombinant from a modified pET28b, purified (Ni-NTA, gel filtration)) MANNDAVLKRLEQKGAEADQIIEYLKQQVSLLKEKAILQATLREEKKLRVENAKLKKEIEELKQELIQAEIQNGVKQIPFPSGTPLHANSMVSENVIQSTAVTTVSSGTKEQIKGGTGDEKKAKEKIEKKGEKKEKKQQSIAGSADSKPIDVSRLDLRIGCIITARKHPDADSLYVEEVDVGEIAPRTVVSGLVNHVPLEQMQNRMVILLCNLKPAKMRGVLSQAMVMCASSPEKIEILAPPNGSVPGDRITFDAFPGEPDKELNPKKKIWEQIQPDLHTNDECVATYKGVPFEVKGKGVCRAQTMSNSGIK | binds | –
5 | Human cytosolic leucyl-tRNA synthetase, full length (enzyme, human cytosolic leucyl-tRNA synthetase, UniProt Q9P2J5, 1176 residues; also called hcLRS; FL-hcLRS; source: recombinant from pET16b-hcLRS, purified (Ni-NTA, gel filtration)) not shown | – | binds
